# Source: patent US20180362628A1 (KYMAB, published 2018)
# Where two headings read alike, the source gives them in different places. No end group written: not given here. *: point of attachment. Biotin = O=C1N[C@H]2[C@H](CS[C@H]2CCCCC(=O)*)N1
# T1: biotinylated rCSP (biotin/rCSP, Example 3) (Plasmodium falciparum strain 3D7, UniProt P02893 19-389, biotinylated (sites not given))
# T1 construct: also called biotin/Pf CSP
# T1 chain: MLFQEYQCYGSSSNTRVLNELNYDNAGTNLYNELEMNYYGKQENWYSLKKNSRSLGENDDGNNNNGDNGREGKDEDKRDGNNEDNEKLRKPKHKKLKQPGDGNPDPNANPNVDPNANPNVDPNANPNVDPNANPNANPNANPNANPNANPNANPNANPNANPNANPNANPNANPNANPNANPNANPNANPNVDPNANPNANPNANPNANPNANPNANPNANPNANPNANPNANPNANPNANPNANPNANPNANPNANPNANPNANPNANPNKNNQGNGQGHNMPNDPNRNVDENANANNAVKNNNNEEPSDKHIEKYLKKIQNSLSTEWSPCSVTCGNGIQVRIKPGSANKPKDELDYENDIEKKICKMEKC
# T2: Peptide #12 (Biotin-SGSGDGNPDPAANPNV)
# T2 construct: alanine scan variant; also called Peptide #12 44296
# T2 peptide: Biotin-SGSGDGNPDPAANPNV
# T3: Peptide #10 (Biotin-SGSGDGNPAPNANPNV)
# T3 construct: alanine scan variant; also called Peptide #10 44294
# T3 peptide: Biotin-SGSGDGNPAPNANPNV
# T4: Peptide #17 (Biotin-SGSGDGNPDPNANPNA)
# T4 construct: alanine scan variant; also called Peptide #17 44301
# T4 peptide: Biotin-SGSGDGNPDPNANPNA
# T5: Peptide #6 (Biotin-SGSGAGNPDPNANPNV)
# T5 construct: alanine scan variant; also called Peptide #6 44290
# T5 peptide: Biotin-SGSGAGNPDPNANPNV
# T6: Peptide #3 (Biotin-SGSGHKKLKQPGDGNPDPNANPN) (N-terminal biotin)
# T6 construct: also called Peptide #3 44288
# T6 peptide: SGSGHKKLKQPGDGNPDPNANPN
# T7: Peptide #1 (Biotin-SGSGKPKHKKLKQPGDGNPDPNANP) (N-terminal biotin)
# T7 construct: also called Peptide #1 44286
# T7 peptide: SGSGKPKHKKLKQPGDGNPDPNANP
# T8: Peptide #16 (Biotin-SGSGDGNPDPNANPAV)
# T8 construct: alanine scan variant; also called Peptide #16 44300
# T8 peptide: Biotin-SGSGDGNPDPNANPAV
# T9: Peptide #8 (Biotin-SGSGDGAPDPNANPNV)
# T9 construct: alanine scan variant; also called Peptide #8 44292
# T9 peptide: Biotin-SGSGDGAPDPNANPNV
# T10: Peptide #7 (Biotin-SGSGDANPDPNANPNV)
# T10 construct: alanine scan variant; also called Peptide #7 44291
# T10 peptide: Biotin-SGSGDANPDPNANPNV
# T11: Peptide #14 (Biotin-SGSGDGNPDPNAAPNV)
# T11 construct: alanine scan variant; also called Peptide #14 44298
# T11 peptide: Biotin-SGSGDGNPDPNAAPNV
# T12: Peptide #15 (Biotin-SGSGDGNPDPNANANV)
# T12 construct: alanine scan variant; also called Peptide #15 44299
# T12 peptide: Biotin-SGSGDGNPDPNANANV
# T13: Peptide #11 (Biotin-SGSGDGNPDANANPNV)
# T13 construct: alanine scan variant; also called Peptide #11 44295
# T13 peptide: Biotin-SGSGDGNPDANANPNV
# T14: Peptide #5 (Biotin-SGSGDGNPDPNANPNV), original sequence of the alanine scan
# T14 construct: also called Peptide #5 44289
# T14 peptide: Biotin-SGSGDGNPDPNANPNV
# T15: Peptide #9 (Biotin-SGSGDGNADPNANPNV)
# T15 construct: alanine scan variant; also called Peptide #9 44293
# T15 peptide: Biotin-SGSGDGNADPNANPNV
# T16: Peptide #4 (Biotin-SGSGNPDPNANP)
# T16 construct: also called Peptide #4 44285
# T16 peptide: Biotin-SGSGNPDPNANP
# T17: Peptide #13 (Biotin-SGSGDGNPDPNKNPNV)
# T17 construct: scan variant, alanine replaced by lysine; also called Peptide #13 44297
# T17 peptide: Biotin-SGSGDGNPDPNKNPNV
# B1: Antibody 667, human IgG1 (antibody, V domains shown)
# VH: QVQLVQSGAEVKKPGASVKVSCRASGYTFTNYAMHWVRQAPGQRLEWMGWINAGNGYTKYSQKFQDRVTITRDTSATTAYMELSSLRSEDTAMYYCARDSFYDILSGPVYHYYGMDVWGQGTTVTVSS
# VL: QSALTQPDSVSGSPGQSITISCTGTSNDVGIYNHVSWYQQHPGKAPKLMIYDVNKRPSGISNRFSGSKSGDTASLTISGLQAEDEADYYCCSYAGSSAWVFGGGTKLTVL
# notes: human IgG1 with human lambda light chain constant region; also called AB-000667; Ab667
# B2: Antibody 668, human IgG1 (antibody, V domains shown)
# VH: QVQLVQSGAEVKKPGASVKVSCKASGFTFTDYAMHWVRQAPGQRLEWMGWINAGNGYTKYSQKFQDRLTITRDTFASTVYMELSSLRSEDTTVYYCARDGFCPSNTCSGYYGMDVWGQGTTVTVSS
# VL: QSALTQPASVSGSPGQSITISCTGTSSDVGSYNYVSWYQQHPGKAPKLMIYDVNTRPSGVSIRFSASKSGNTASLTVSGLQAEDEAVYYCSSYAGSSTWVFGGGTKLTVL
# notes: human IgG1 with human lambda light chain constant region; HEK293 product; also called AB-000668; Ab668
# Columns and labels:
# [1] = target: T1, biotinylated rCSP (biotin/rCSP, Example …); experiment: BLI (Octet), biotin-rCSP on streptavidin sensor, antibody in solution
# [2] = target: T2, Peptide #12 (Biotin-SGSGDGNPDPAANPNV); experiment: BLI, biotin-peptide on streptavidin sensor, IgG1 in solution, 25 C
# [3] = target: T3, Peptide #10 (Biotin-SGSGDGNPAPNANPNV); experiment: as above
# [4] = target: T4, Peptide #17 (Biotin-SGSGDGNPDPNANPNA); experiment: as above
# [5] = target: T5, Peptide #6 (Biotin-SGSGAGNPDPNANPNV); experiment: as above
# [6] = target: T6, Peptide #3 …; experiment: as above
# [7] = target: T7, Peptide #1 …; experiment: as above
# [8] = target: T8, Peptide #16 (Biotin-SGSGDGNPDPNANPAV); experiment: as above
# [9] = target: T9, Peptide #8 (Biotin-SGSGDGAPDPNANPNV); experiment: as above
# [10] = target: T10, Peptide #7 (Biotin-SGSGDANPDPNANPNV); experiment: as above
# [11] = target: T11, Peptide #14 (Biotin-SGSGDGNPDPNAAPNV); experiment: as above
# [12] = target: T12, Peptide #15 (Biotin-SGSGDGNPDPNANANV); experiment: as above
# [13] = target: T13, Peptide #11 (Biotin-SGSGDGNPDANANPNV); experiment: as above
# [14] = target: T14, Peptide #5 (Biotin-SGSGDGNPDPNANPNV), …; experiment: as above
# [15] = target: T15, Peptide #9 (Biotin-SGSGDGNADPNANPNV); experiment: as above
# [16] = target: T16, Peptide #4 (Biotin-SGSGNPDPNANP); experiment: as above
# [17] = target: T1, biotinylated rCSP (biotin/rCSP, Example …); experiment: BLI (Octet), biotin-rCSP on streptavidin sensor, antibody in solution
# [18] = target: T18, Recombinant CSP (Wellcome Trust Sanger Institute, FIG. 22), CSP ectodomain with BirA biotinylation tag, … (Plasmodium falciparum strain 3D7, UniProt Q7K740 19-376, biotinylated at the BirA substrate peptide); experiment: SPR, IgG1 captured, CSP as analyte, 40 C; apparent affinity (avidity)
# T18 construct: extracellular domain; Expressed in HEK293, 45 kDa; order of the tags is that of the legend, not confirmed; also called biotinylated recombinant CSP
# [19] = target: T2, Peptide #12 (Biotin-SGSGDGNPDPAANPNV); experiment: BLI, biotin-peptide on streptavidin sensor, IgG1 in solution, 25 C
# [20] = target: T3, Peptide #10 (Biotin-SGSGDGNPAPNANPNV); experiment: as above
# [21] = target: T17, Peptide #13 (Biotin-SGSGDGNPDPNKNPNV); experiment: as above
# [22] = target: T4, Peptide #17 (Biotin-SGSGDGNPDPNANPNA); experiment: as above
# [23] = target: T5, Peptide #6 (Biotin-SGSGAGNPDPNANPNV); experiment: as above
# [24] = target: T6, Peptide #3 …; experiment: as above
# [25] = target: T7, Peptide #1 …; experiment: as above
# [26] = target: T8, Peptide #16 (Biotin-SGSGDGNPDPNANPAV); experiment: as above
# [27] = target: T9, Peptide #8 (Biotin-SGSGDGAPDPNANPNV); experiment: as above
# [28] = target: T10, Peptide #7 (Biotin-SGSGDANPDPNANPNV); experiment: as above
# [29] = target: T11, Peptide #14 (Biotin-SGSGDGNPDPNAAPNV); experiment: as above
# [30] = target: T12, Peptide #15 (Biotin-SGSGDGNPDPNANANV); experiment: as above
# [31] = target: T13, Peptide #11 (Biotin-SGSGDGNPDANANPNV); experiment: as above
# [32] = target: T14, Peptide #5 (Biotin-SGSGDGNPDPNANPNV), …; experiment: as above
# [33] = target: T15, Peptide #9 (Biotin-SGSGDGNADPNANPNV); experiment: as above
# [34] = target: T16, Peptide #4 (Biotin-SGSGNPDPNANP); experiment: as above
binder,measurement,setting,value
B1,Kd,[1],0.341 nM
same,koff,[1],5.67e-05 s⁻¹
same,kon,[1],166000 M⁻¹ s⁻¹
same,Response (nm),[2],0.0529 nm
same,Response (nm),[3],3.22 nm
same,Response (nm),[4],1.09 nm
same,Response (nm),[5],0.907 nm
same,Response (nm),[6],0.814 nm
same,Response (nm),[7],0.645 nm
same,Response (nm),[8],0.651 nm
same,Response (nm),[9],0.692 nm
same,Response (nm),[10],0.951 nm
same,Response (nm),[11],-0.0141 nm
same,Response (nm),[12],0.213 nm
same,Response (nm),[13],0.0953 nm
same,Response (nm),[14],0.635 nm
same,Response (nm),[15],0.696 nm
same,Response (nm),[16],0.163 nm
same,Kd,[17],0.34 nM
same,Kd,[18],0.31 nM
same,koff,[18],6.46e-05 s⁻¹
same,kon,[18],215000 M⁻¹ s⁻¹
B2,Kd,[1],0.57 nM
same,koff,[1],7.1e-05 s⁻¹
same,kon,[1],125000 M⁻¹ s⁻¹
same,Kd,[17],0.57 nM
same,Response (nm),[19],4.74 nm
same,Response (nm),[20],5.82 nm
same,binding result,[21],no binding (tested: LOD 0.170 nm)
same,Response (nm),[22],4.86 nm
same,Response (nm),[23],4.9 nm
same,Response (nm),[24],6.34 nm
same,Response (nm),[25],6.47 nm
same,Response (nm),[26],4.72 nm
same,Response (nm),[27],4.86 nm
same,Response (nm),[28],4.88 nm
same,Response (nm),[29],0.597 nm
same,Response (nm),[30],5.69 nm
same,Response (nm),[31],6.01 nm
same,Response (nm),[32],4.71 nm
same,Response (nm),[33],4.72 nm
same,Response (nm),[34],4.69 nm
same,Kd,[18],0.05 nM
same,koff,[18],2.47e-05 s⁻¹
same,kon,[18],540000 M⁻¹ s⁻¹
